The target in the assay is T1, C-terminal half of Sec8 (Sec8c, aa544–975) (rat, UniProt Q62824 544-975).
T1 construct: Sec8 (exocyst subunit), Rattus norvegicus, C-terminal half, aa544–975; ends with the ITTV motif; Used in ITC and SEC under the plain name Sec8c; source: E. coli BL21-DE3, purified (Ni-HiTrap HP; Superdex 200)
In words: ITC; 300 µM SAP102 truncation in the syringe titrated into 30 µM Sec8c (or Sec8c-Δ958–971) in the cell; 20 mM HEPES pH 7.5, 100 mM NaCl, 1 mM DTT; one-set-of-sites model; control titration (protein to buffer) subtracted. The conditions noted are these: both partners purified. For orientation: Isothermal titration calorimetry measures the heat released or taken up as one component is titrated into another.

T1 sequence (Q62824 544-975): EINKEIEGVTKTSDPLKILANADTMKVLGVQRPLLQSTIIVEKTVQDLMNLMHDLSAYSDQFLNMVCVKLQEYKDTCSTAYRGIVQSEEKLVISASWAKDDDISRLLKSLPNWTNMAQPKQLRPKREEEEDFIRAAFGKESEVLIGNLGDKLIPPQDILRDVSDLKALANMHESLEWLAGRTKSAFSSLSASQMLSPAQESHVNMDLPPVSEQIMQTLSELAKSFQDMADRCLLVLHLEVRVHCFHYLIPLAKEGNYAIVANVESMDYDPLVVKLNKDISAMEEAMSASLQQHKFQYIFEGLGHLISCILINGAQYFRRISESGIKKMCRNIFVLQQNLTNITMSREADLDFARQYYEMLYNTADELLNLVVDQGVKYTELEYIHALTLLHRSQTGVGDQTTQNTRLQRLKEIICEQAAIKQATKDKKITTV

B1: SAP102 PDZ2 (aa241–331) (domain or fragment, rat, UniProt Q62936 241-331, looked up)
chain: TIMEVNLLKGPKGLGFSIAGGIGNQHIPGDNSIYITKIIEGGAAQKDGRLQIGDRLLAVNNTNLQDVRHEEAVASLKNTSDMVYLKVAKPG
notes: source: E. coli BL21-DE3, purified (Ni-HiTrap HP, SENP2 cleavage, Superdex 200); not shown: His6-SUMO, N-terminal, cleaved
As for B1, the Kd (as a rule, the equilibrium constant for the complex coming apart) was roughly 4 µM.

B2: SAP102 PDZ1-PDZ2 (aa144–331) (domain or fragment, rat, UniProt Q62936 144-331, looked up)
chain: MFKYEEIVLERGNSGLGFSIAGGIDNPHVPDDPGIFITKIIPGGAAAMDGRLGVNDCVLRVNEVDVSEVVHSRAVEALKEAGPVVRLVVRRRQPPPETIMEVNLLKGPKGLGFSIAGGIGNQHIPGDNSIYITKIIEGGAAQKDGRLQIGDRLLAVNNTNLQDVRHEEAVASLKNTSDMVYLKVAKPG
notes: also called tandem PDZ1-PDZ2; source: E. coli BL21-DE3, purified (Ni-HiTrap HP, SENP2 cleavage, Superdex 200); not shown: His6-SUMO, N-terminal, cleaved
Take B2: the Kd was roughly 6 µM.

(Values after PMC10577314 (Frontiers in Cell and Developmental Biology, 2023).)
